Source: patent US20180339041A1 (Kyowa Kirin, published 2018)
Substitutions are numbered along the chain they refer to. Names may count otherwise. Each block holds one binder with its values, some of them ahead of it.

Molecular target: T1, C-terminally FLAG-tagged human Gas6 recombinant protein (hGas6-F) (human, UniProt Q14393 31-678, gamma-carboxylated glutamic acid residues in the Gla domain (producer cells co-express rat VKOR and human GGCX); positions not given)
T1 construct: also called human Gas6-F; human Gas6 protein
T1 sequence: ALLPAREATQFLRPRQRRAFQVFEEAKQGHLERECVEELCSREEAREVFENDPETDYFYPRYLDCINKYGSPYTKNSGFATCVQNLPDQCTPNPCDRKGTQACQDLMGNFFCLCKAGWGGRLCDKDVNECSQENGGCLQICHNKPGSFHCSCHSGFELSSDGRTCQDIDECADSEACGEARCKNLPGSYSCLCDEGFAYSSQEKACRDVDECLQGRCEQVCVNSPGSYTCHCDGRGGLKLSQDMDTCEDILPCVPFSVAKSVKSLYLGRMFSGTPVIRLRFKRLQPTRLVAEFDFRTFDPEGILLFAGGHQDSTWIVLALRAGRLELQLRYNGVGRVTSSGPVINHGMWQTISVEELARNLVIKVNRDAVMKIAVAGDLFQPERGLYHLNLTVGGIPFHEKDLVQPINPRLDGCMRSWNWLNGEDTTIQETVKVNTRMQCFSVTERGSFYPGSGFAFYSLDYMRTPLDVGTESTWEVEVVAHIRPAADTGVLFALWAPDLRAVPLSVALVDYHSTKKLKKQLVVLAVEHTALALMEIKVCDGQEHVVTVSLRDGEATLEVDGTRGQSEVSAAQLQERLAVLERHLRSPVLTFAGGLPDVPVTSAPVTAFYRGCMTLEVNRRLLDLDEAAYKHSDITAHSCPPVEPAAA
Experiment: SPR Biacore T100, captured antibody, Gas6 analyte, first test
Method: An anti-human IgG antibody was immobilized on a CM5 sensor chip (manufactured by GE Healthcare Japan Corp.) using Human Antibody Capture Kit (manufactured by GE Healthcare Japan Corp.) according to the attached manual. Each test antibody adjusted to 1 μg/mL was added for 10 seconds at a flow rate of 10 μL/min to flow cells. […] The measurement was performed by the […] method. The obtained sensorgram was analyzed using Bia Evaluation Software (manufactured by GE Healthcare Japan Corp.), and the kinetic constant of each antibody was calculated.

B1: hzKM5320 LV5HV3a antibody (antibody, V domains shown)
VH: QVQLVQSGSELKKPGASVKVSCKASGYTFTNYGMNWVRQAPGQGLKWMGWINTETGEPTYSDDFKGRFVFSLDTSVSTAYLQISSLKAEDTATYFCAREDGYYGTLDYWGQGTTVTVSS
VL: DIVMTQSPDSLAVSLGERVTINCKASQSVSNDVAWYQQKPGQSPKVLIYYASNRYTGVPDRFSGSGSGTDFTFTISSVQAEDVAVYFCQQDYSSPWTFGQGTKLEIK
notes: Humanized; variant human IgG4 constant region (EU S228P, L235E, R409K), human kappa; also called A-21
Kd: < 2.3 nM
koff: 0.000177 s⁻¹
kon: > 77100 M⁻¹ s⁻¹

B3: hzKM5320 LV2bHV8 antibody (antibody, V domains shown)
VH: B1 VH with V2I, S9P, V20I, R38K, S77T
VL: B1 VL with I2V, L15A, V46L, V78L, F87Y
notes: Humanized; variant human IgG4 constant region (EU S228P, L235E, R409K), human kappa; also called A-14
Kd: < 9.77 nM
koff: 0.000791 s⁻¹
kon: > 81000 M⁻¹ s⁻¹

B6: hzKM5320 LV1aHV8 antibody (antibody, V domains shown)
VH: B1 VH with V2I, S9P, V20I, R38K, S77T
VL: B1 VL with I2V, V46L, F73L, V78L
notes: Humanized; variant human IgG4 constant region (EU S228P, L235E, R409K), human kappa; also called A-11
Kd: < 9.64 nM
koff: 0.000694 s⁻¹
kon: > 72000 M⁻¹ s⁻¹

B9: hzKM5320 LV0HV8 antibody (antibody, V domains shown)
VH: B1 VH with V2I, S9P, V20I, R38K, S77T
VL: B1 VL with I2V, V46L, F73L, V78L, F87Y
notes: Humanized; variant human IgG4 constant region (EU S228P, L235E, R409K), human kappa; also called A-10
Kd: < 9.79 nM
koff: 0.000714 s⁻¹
kon: > 72900 M⁻¹ s⁻¹

B11: hzKM5320 LV2bHV0 antibody (antibody, V domains shown)
VH: B1 VH with K46E, T93V, F95Y
VL: B1 VL with I2V, L15A, V46L, V78L, F87Y
notes: Humanized; variant human IgG4 constant region (EU S228P, L235E, R409K), human kappa; also called A-06
Kd: < 14.4 nM
koff: 0.00104 s⁻¹
kon: > 72600 M⁻¹ s⁻¹

B12: hzKM5320 LV2aHV0 antibody (antibody, V domains shown)
VH: B1 VH with K46E, T93V, F95Y
VL: B1 VL with I2V, V46L, F73L
notes: Humanized; variant human IgG4 constant region (EU S228P, L235E, R409K), human kappa; also called A-05
Kd: < 15.2 nM
koff: 0.00105 s⁻¹
kon: > 69100 M⁻¹ s⁻¹

B14: hzKM5320 LV2aHV8 antibody (antibody, V domains shown)
VH: B1 VH with V2I, S9P, V20I, R38K, S77T
VL: B1 VL with I2V, V46L, F73L
notes: Humanized; variant human IgG4 constant region (EU S228P, L235E, R409K), human kappa; also called A-13
Kd: < 10.2 nM
koff: 0.0008 s⁻¹
kon: > 78600 M⁻¹ s⁻¹

B15: hzKM5320 LV1aHV0 antibody (antibody, V domains shown)
VH: B1 VH with K46E, T93V, F95Y
VL: B1 VL with I2V, V46L, F73L, V78L
notes: Humanized; variant human IgG4 constant region (EU S228P, L235E, R409K), human kappa; also called A-03
Kd: < 12.6 nM
koff: 0.000829 s⁻¹
kon: > 65700 M⁻¹ s⁻¹

B16: hzKM5320 LV3HV0 antibody (antibody, V domains shown)
VH: B1 VH with K46E, T93V, F95Y
VL: B1 VL with I2V, V78L
notes: Humanized; variant human IgG4 constant region (EU S228P, L235E, R409K), human kappa; also called A-07
Kd: < 2.91 nM
koff: 0.000209 s⁻¹
kon: > 71900 M⁻¹ s⁻¹

Other lines, results leading:

Kd: < 2.19 nM
koff: 0.000173 s⁻¹
kon: > 79200 M⁻¹ s⁻¹
B2: hzKM5320 LV5HV4 antibody (antibody, V domains shown)
VH: B1 VH with S9P
VL: B1 VL
notes: Humanized; variant human IgG4 constant region (EU S228P, L235E, R409K), human kappa; also called A-24

Kd: < 1.8 nM
koff: 0.000147 s⁻¹
kon: > 81700 M⁻¹ s⁻¹
B4: hzKM5320 LV5HV6 antibody (antibody, V domains shown)
VH: B1 VH with S9P, V20I, R38K
VL: B1 VL
notes: Humanized; variant human IgG4 constant region (EU S228P, L235E, R409K), human kappa; also called A-25

Kd: < 2.85 nM
koff: 0.00019 s⁻¹
kon: > 66700 M⁻¹ s⁻¹
B5: hzKM5320 LV5HV0 antibody (antibody, V domains shown)
VH: B1 VH with K46E, T93V, F95Y
VL: B1 VL
notes: Humanized; variant human IgG4 constant region (EU S228P, L235E, R409K), human kappa; also called A-08

Kd: < 1.79 nM
koff: 0.00014 s⁻¹
kon: > 77900 M⁻¹ s⁻¹
B7: hzKM5320 LV5HV3c antibody (antibody, V domains shown)
VH: B1 VH with S9P, R38K, T93V, F95Y
VL: B1 VL
notes: Humanized; variant human IgG4 constant region (EU S228P, L235E, R409K), human kappa; also called A-23

Kd: < 2.3 nM
koff: 0.000174 s⁻¹
kon: > 75600 M⁻¹ s⁻¹
B8: hzKM5320 LV3HV8 antibody (antibody, V domains shown)
VH: B1 VH with V2I, S9P, V20I, R38K, S77T
VL: B1 VL with I2V, V78L
notes: Humanized; variant human IgG4 constant region (EU S228P, L235E, R409K), human kappa; also called A-15

Kd: < 2.18 nM
koff: 0.000158 s⁻¹
kon: > 72500 M⁻¹ s⁻¹
B10: hzKM5320 LV6HV8 antibody (antibody, V domains shown)
VH: B1 VH with V2I, S9P, V20I, R38K, S77T
VL: B1 VL with L15A
notes: Humanized; variant human IgG4 constant region (EU S228P, L235E, R409K), human kappa; also called A-17

Kd: < 2.48 nM
koff: 0.000184 s⁻¹
kon: > 74100 M⁻¹ s⁻¹
B13: hzKM5320 LV5HV1 antibody (antibody, V domains shown)
VH: B1 VH with T93V, F95Y
VL: B1 VL
notes: Humanized; variant human IgG4 constant region (EU S228P, L235E, R409K), human kappa; also called A-19
